Measurements: the supplement of paper PMC7125110
± gives the standard error. Fewer inactive variants are shown than the library holds.

B1: glmS ribozyme (parent)
chain: AUAAAAGCGCCAGAACUACAGAAAUGUAGUUGACGAGGAGGAGGUUUAUCGAAUUUUCGGCGGAUGCCUCCAAA

What was measured:
Conditions in all cases: with glucosamine-6-phosphate
glucosamine-6-phosphate [1] = variants of: B1; assay: self-cleavage kobs at 640 uM GlcN6P; higher = faster cleavage; RNA array
Outline: (§1)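 Tracking of barcoded ribozyme variants used a hybridised Cy3 probe at 37 °C, after in situ transcription by E. coli RNA polymerase on sequenced MiSeq chips. The flowed solution held 40 μM to 10 mM glucosamine-6-phosphate in HEPES/KCl/Mg(OAc)2 buffer, and imaging ran over ~14 h. kobs was taken from exponential decay fits of normalised per-tile medians, and kcat and KM from weighted Michaelis–Menten fits.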

glucosamine-6-phosphate [2] = variants of: B1; assay: self-cleavage kobs at 2500 uM GlcN6P; higher = faster cleavage; RNA array
Outline: as §1

glucosamine-6-phosphate [3] = variants of: B1; assay: self-cleavage kobs at 10000 uM GlcN6P; higher = faster cleavage; RNA array
Outline: as §1

Row | Variant | self-cleavage kobs at 640 uM GlcN6P (glucosamine-6-phosphate [1]) [s⁻¹] | self-cleavage kobs at 2500 uM GlcN6P (glucosamine-6-phosphate [2]) [s⁻¹] | self-cleavage kobs at 10000 uM GlcN6P (glucosamine-6-phosphate [3]) [s⁻¹]
1 | A33G A39C G44A C71G | < 1e-05 | < 1e-05 | 
2 | G29A A36C | < 1e-05 | < 1e-05 | < 1e-05
3 | C34U U49A U55G C61U C68G | 0.000585 ± 0.00016 |  | 
4 | C16U U46C U55A C70U | 0.00101 ± 0.00034 | 0.00219 ± 0.0006 | 0.00226 ± 0.00047
5 | G29C U56A C67G | 4.47e-05 ± 2.1e-05 | 7.09e-05 ± 2e-05 | 
6 | U30C G63U C68G | 9.11e-05 ± 1.9e-05 | 5.6e-05 ± 1.4e-05 | 
7 | G32A G41A C50U | < 1e-05 | < 1e-05 | 
8 | C34U U55A U57G C61U | < 1e-05 |  | < 1e-05
9 | G29A G37A | 0.000124 ± 3.6e-05 | 0.000156 ± 5.7e-05 | 
10 | U30C C34A A36G A52U | < 1e-05 | < 1e-05 | 
11 | G32U A52U C58U | < 1e-05 | < 1e-05 | 
12 | G35C A36U G40A | < 1e-05 | < 1e-05 | 
13 | A33U A42U G44C | < 1e-05 |  | 
14 | A33C C61A A64U C68U | < 1e-05 |  | 
15 | U31G G35C C68G | < 1e-05 | < 1e-05 | 
16 | C34U U55C C67U | < 1e-05 |  | 

Row | Variant | self-cleavage kobs at 640 uM GlcN6P (glucosamine-6-phosphate [1]) [s⁻¹] | self-cleavage kobs at 2500 uM GlcN6P (glucosamine-6-phosphate [2]) [s⁻¹] | self-cleavage kobs at 10000 uM GlcN6P (glucosamine-6-phosphate [3]) [s⁻¹]
17 | G32A C34U G60A | < 1e-05 | < 1e-05 | 
18 | C34G G35C G60C C68G | 6.81e-05 ± 3.1e-05 |  | 
19 | A33C G66C C68G C70A | < 1e-05 |  | 
20 | G32U A33U U56G | < 1e-05 |  | 
21 | A33U G41A C58A U65G | < 1e-05 | < 1e-05 | 
22 | G35C G41A U49A C58G C71U | < 1e-05 |  | 
23 | G32C G37U G38C | < 1e-05 | < 1e-05 | 
24 | G29C A33C C34G G38C A52G | < 1e-05 |  | 
25 | G32A U54C C67U | 0.000136 ± 3.3e-05 | 0.000349 ± 9.2e-05 | 
26 | U31A U65C | 6.63e-05 ± 2.8e-05 | 0.000132 ± 3.7e-05 | 0.000395 ± 0.0001
27 | U31C A42U G44A | < 1e-05 | < 1e-05 | 
28 | G32C A48U A64C | < 1e-05 |  | 
29 | C34A U46G G62C | < 1e-05 |  | 
30 | A33C G37A G41C U56C | < 1e-05 |  | 
31 | U31C U46C | 7.34e-05 ± 2.3e-05 | 0.000204 ± 3.7e-05 | 0.000295 ± 8e-05
